Results: PMC3293417 (Nature Communications, 2012)

B1: Beclin 1 coiled coil (CC) domain (residues 174–266), wild type, untagged (domain or fragment)
chain: DSEQLQRELKELALEEERLIQELEDVEKNRKVVAENLEKVQAEAERLDQEEAQYQREYSEFKRQQLELDDELKSVENQMRYAQMQLDKLKKTN
B2: CC region of rat Atg14L (residues 88–178) (domain or fragment)
chain: KQEEFQKEVLKAMEGKRLTDQLRWKIMSCKMRIEQLKQTICKGNEEMKKNSEGLLKNKEKNQKLYSRAQRHQEKKEKIQRHNRKLGDLVEK
B3: CC region of mouse UVRAG (residues 228–298) (domain or fragment)
chain: TSNELKKESECLRLKILVLRNELERQKKALGREVAFLHKQQMALQDKGSAFSTEHGKLQLQKDSLSELRKE

Columns and labels:
[1] = biological target: CC region of mouse UVRAG (residues 228–298) (mouse) (UniProt Q8K245); assay: ITC
ITC = biological target: the molecule itself; assay: ITC
[2] = biological target: B2; assay: ITC
[3] = biological target: B3; assay: ITC
[4] = biological target: B1; assay: ITC
[5] = biological target: Beclin 1 CC domain MutM L178A/L259A (rat, UniProt Q91XJ1 174-266, L178A | L259A); assay: ITC
[6] = biological target: Beclin 1 CC domain MutM L178A/L192A (rat, UniProt Q91XJ1 174-266, L178A | L192A); assay: ITC
[7] = biological target: Beclin 1 CC domain MutStab E224L (rat, UniProt Q91XJ1 174-266, E224L); assay: ITC
[8] = biological target: Beclin 1 CC domain MutM L178A/L196A (rat, UniProt Q91XJ1 174-266, L178A | L196A); assay: ITC
AUC = biological target: the molecule itself; assay: AUC

Sequence of Beclin 1 CC domain MutM L178A/L259A (Q91XJ1 174-266 L178A/L259A): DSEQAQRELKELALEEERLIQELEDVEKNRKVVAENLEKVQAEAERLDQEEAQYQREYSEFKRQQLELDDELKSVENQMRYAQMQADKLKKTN

Beclin 1 CC domain MutM L178A/L192A (from UniProt Q91XJ1 174-266) (domain or fragment)
Kd [1]: 2240 nM

Beclin 1 CC domain MutM L178A/L196A (from UniProt Q91XJ1 174-266) (domain or fragment)
Kd [1]: 1140 nM

Beclin 1 CC domain MutM L178A/L259A (from UniProt Q91XJ1 174-266) (domain or fragment)
Kd [1]: 70 nM

Beclin 1 CC domain MutStab A217L/E224L (from UniProt Q91XJ1 174-266) (domain or fragment)
Kd [1]: 1440 nM | stoichiometry N [1]: 1

Beclin 1 CC domain MutStab A217L/E224L/A255L (from UniProt Q91XJ1 174-266) (domain or fragment)
Kd [1]: 4240 nM

Beclin 1 CC domain MutStab E189L (from UniProt Q91XJ1 174-266) (domain or fragment)
Kd [1]: 1130 nM

Beclin 1 CC domain MutStab E189L/A217L/E224L/A255L (from UniProt Q91XJ1 174-266) (domain or fragment)
Kd [1]: 8700 nM

Beclin 1 CC domain MutStab E189L/A255L (from UniProt Q91XJ1 174-266) (domain or fragment)
Kd [1]: 1310 nM | stoichiometry N [1]: 1

Beclin 1 CC domain MutStab E224L (from UniProt Q91XJ1 174-266) (domain or fragment)
Kd [1]: 2430 nM

B1
Kd (ITC): ~89000 nM | stoichiometry N [2]: 1 | stoichiometry N [3]: 1

B2
Kd [4]: 3220 ± 950 nM | Kd [5]: 1200 ± 130 nM | Kd [6]: 4610 ± 500 nM | Kd [7]: 8850 ± 400 nM | Kd [8]: 6850 ± 840 nM

B3
Kd [4]: 240 ± 60 nM

B4: Beclin 1 CC domain MutStab E189L/A217L/E224L/A255L (domain or fragment)
chain: DSEQLQRELKELALELERLIQELEDVEKNRKVVAENLEKVQAELERLDQELAQYQREYSEFKRQQLELDDELKSVENQMRYLQMQLDKLKKTN
stoichiometry N (AUC): 4
